Test results reported in patent publication US20230083670A1.

How the values were obtained:
[1] = target: PD-L1 on CHO-PD-L1 cells (human) (UniProt Q9NZQ7); experiment: flow cytometry cell binding; CHO-PD-L1 cells
CD47 on Jurkat cells = CD47 on Jurkat cells (UniProt Q08722); experiment: flow cytometry cell binding; Jurkat cells

Sequence of PD-L1 on CHO-PD-L1 cells (human) (Q9NZQ7 19-290): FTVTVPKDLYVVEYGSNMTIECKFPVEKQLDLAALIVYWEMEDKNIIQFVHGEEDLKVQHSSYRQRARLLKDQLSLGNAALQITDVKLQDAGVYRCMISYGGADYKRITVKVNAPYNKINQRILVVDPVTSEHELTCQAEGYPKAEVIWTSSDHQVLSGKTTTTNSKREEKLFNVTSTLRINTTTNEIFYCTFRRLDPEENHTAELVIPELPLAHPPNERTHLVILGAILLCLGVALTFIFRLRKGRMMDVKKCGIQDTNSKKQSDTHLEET

Row | EC50 [1] | EC50 (CD47 on Jurkat cells) | Substance
1 | 0.027 nM | – | Atezolizumab
2 | 0.0471 nM | 0.913 nM | IMM2505
